Assay [1] addresses T1, human CXCR3 (human, UniProt P49682 1-368).
T1 sequence: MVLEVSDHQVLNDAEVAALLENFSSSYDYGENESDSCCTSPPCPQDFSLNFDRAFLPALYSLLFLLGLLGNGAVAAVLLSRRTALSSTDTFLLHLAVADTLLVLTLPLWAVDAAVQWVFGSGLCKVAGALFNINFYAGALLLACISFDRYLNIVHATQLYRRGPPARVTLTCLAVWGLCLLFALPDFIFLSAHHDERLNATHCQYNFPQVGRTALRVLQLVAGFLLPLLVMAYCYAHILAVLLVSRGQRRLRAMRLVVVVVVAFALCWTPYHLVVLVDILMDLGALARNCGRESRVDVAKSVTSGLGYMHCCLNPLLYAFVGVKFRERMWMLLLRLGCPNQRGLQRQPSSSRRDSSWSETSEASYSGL
The assay can be described thus: cell-based or functional assay.

A further assay has as its target T2, human CCR3 (human, UniProt P51677 1-355).
T2 construct: whole, on cells
T2 sequence (looked up): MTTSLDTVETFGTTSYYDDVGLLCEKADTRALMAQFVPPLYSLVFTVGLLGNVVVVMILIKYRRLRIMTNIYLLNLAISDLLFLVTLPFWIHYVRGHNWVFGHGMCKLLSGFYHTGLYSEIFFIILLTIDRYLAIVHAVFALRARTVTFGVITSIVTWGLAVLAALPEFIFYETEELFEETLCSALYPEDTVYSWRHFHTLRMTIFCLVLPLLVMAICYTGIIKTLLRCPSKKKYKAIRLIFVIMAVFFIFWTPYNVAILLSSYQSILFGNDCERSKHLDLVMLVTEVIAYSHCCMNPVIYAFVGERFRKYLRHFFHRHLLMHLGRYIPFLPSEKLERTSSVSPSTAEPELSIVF
Nature of the assay: flow cytometry, hybridoma supernatant on L1.2 transfectants, PE anti-human IgG. As for the experimental part:
(§1) Three days after the last immunization, five animals were sacrificed, their spleen cells were isolated, combined and used to produce hybridomas by standard methods. About 3×10⁸ spleen cells were fused with 5- to 10-fold fewer SP2/0-Ag14 fusion partner cells (ATCC, No. CRL-1581, Manassas, Va.) or P3X63Ag8.653 fusion partner cells (ATCC, No. CRL-1580, Manassas, Va.), by brief resuspension in polyethylene glycol 1500 (50% in 75 mM HEPES, Boehringer-Mannheim, now Roche Applied Science, Indianapolis, Ind.), to generate the hybridomas. After fusion, the cells were selected by incubation for two weeks in hypoxanthine, aminopterin, thymidine (HAT) medium specificity was assessed by staining CXCR3 transfectants, control L1.2 cells and L1.2 cells that expressed human CCR1, CCR2, CCR3, CCR4, CCR5, CXCR1, CXCR2, or CXCR4 (Qin et al. (1998) J. Clin. Invest. 101:746-54). The binding of antibody from the hybridoma supernatants to receptor transfectants was detected by phycoerythrin-conjugated anti-human IgG with analysis by flow cytometry. Positive wells were those that contained supernatant which stained the CXCR3 transfectants, but not L1.2 cells which expressed the other chemokine receptors tested. Positive wells were subcloned to yield hybridoma cell lines. Hybridoma cultures were maintained in DMEM with 10% fetal calf serum, 10 units/ml interleukin-6, 0.1% L-glutamine, and 0.1% penicillin/streptomycin.
In general terms: Flow cytometry measures light scatter and fluorescence of single cells or particles in a stream.

A further assay has as its target T3, human CCR4 (human, UniProt P51679 1-360).
T3 construct: whole, on cells
T3 sequence (looked up): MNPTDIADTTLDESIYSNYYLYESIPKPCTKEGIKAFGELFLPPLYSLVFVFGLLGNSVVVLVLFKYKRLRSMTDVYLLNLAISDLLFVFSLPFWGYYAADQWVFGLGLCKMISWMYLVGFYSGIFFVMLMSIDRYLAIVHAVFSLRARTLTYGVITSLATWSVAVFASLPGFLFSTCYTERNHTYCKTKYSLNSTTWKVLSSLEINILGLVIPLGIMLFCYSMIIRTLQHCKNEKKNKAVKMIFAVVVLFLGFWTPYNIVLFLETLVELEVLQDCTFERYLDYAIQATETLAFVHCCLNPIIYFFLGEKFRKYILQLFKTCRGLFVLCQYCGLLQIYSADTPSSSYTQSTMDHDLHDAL
Described as above. How it is done: as §1

The target of another assay is T4, human CCR5 (human, UniProt P51681 1-352).
T4 construct: whole, on cells
The assay is described as above. As for the experimental part: as §1

In the next assay the target is T5, human CXCR1 (human, UniProt P25024 1-350).
T5 construct: whole, on cells
T5 sequence (looked up): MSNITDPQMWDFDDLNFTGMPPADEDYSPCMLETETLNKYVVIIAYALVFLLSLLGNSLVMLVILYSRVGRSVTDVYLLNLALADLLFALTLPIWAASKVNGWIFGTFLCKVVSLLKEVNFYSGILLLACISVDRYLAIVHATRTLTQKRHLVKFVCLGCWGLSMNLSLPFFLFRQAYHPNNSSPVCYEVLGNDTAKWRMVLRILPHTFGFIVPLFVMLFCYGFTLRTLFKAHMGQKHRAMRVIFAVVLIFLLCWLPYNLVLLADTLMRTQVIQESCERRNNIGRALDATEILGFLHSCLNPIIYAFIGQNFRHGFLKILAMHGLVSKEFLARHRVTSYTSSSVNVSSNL
The description is as above. How it is done: as §1

In the next assay the target is T6, human CXCR2 (human, UniProt P25025 1-360).
T6 construct: whole, on cells
T6 sequence (looked up): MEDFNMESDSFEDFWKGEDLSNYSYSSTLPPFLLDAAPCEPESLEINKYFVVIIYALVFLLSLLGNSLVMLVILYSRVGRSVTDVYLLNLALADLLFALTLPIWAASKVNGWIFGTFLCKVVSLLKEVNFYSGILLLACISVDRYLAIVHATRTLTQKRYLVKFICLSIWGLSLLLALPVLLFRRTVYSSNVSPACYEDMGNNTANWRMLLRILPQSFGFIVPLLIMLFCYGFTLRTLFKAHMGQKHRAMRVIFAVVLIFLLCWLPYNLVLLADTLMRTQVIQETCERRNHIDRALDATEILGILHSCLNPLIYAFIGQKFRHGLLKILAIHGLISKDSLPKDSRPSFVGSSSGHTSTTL
The assay is described as above. As for the experimental part: as §1

The next assay concerns the target T7, human CXCR4 (human, UniProt P61073 1-352).
T7 construct: whole, on cells
The description is as above. As for the experimental part: as §1

The target of the next assay is T8, human CCR1 (human, UniProt P32246 1-355).
T8 construct: whole, on cells
T8 sequence (looked up): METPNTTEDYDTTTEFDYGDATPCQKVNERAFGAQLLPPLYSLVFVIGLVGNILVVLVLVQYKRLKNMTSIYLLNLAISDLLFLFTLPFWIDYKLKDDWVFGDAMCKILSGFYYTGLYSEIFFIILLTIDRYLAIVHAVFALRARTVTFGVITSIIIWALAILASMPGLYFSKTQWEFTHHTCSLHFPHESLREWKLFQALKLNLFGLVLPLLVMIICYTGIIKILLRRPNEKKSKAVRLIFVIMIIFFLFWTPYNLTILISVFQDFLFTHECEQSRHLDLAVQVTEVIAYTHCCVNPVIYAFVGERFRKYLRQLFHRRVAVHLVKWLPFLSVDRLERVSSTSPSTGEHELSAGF
The description is as above. How it is done:
as §1

For another assay, the target named is T9, human CCR2 (human, UniProt P41597 1-374).
T9 construct: whole, on cells
The assay is described as above. How it is done:
as §1

Assay [2] deals with T1, human CXCR3. The assay can be described thus: flow cytometry on CXCR3 L1.2 transfectants, biotinylated antibody, streptavidin-PE; 100% is the fluorescence at 10 µg/ml. How it is done:
The strength of human monoclonal antibody 5H7 and human monoclonal antibody 7H5 binding to CXCR3 was measured using CXCR3 transfectants. The mean streptavidin-PE fluorescence detected when 10 μg/ml of each purified mAb was used to stain CXCR3 transfectants was used as 100% fluorescence.

By EC50 is commonly meant the concentration giving half of the maximal effect. Read a high EC50 as a less potent agent.

T7 sequence (P61073 whole entry): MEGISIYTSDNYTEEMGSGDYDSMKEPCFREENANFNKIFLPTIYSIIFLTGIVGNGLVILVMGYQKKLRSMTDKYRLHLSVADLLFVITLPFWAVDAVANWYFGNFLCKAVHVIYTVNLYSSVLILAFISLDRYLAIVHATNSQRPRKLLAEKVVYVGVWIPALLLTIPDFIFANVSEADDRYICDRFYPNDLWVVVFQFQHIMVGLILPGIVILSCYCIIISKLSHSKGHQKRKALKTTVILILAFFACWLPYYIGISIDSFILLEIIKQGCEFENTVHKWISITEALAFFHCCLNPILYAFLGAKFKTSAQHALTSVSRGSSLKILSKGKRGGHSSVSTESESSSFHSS
T9 sequence (P41597 whole entry): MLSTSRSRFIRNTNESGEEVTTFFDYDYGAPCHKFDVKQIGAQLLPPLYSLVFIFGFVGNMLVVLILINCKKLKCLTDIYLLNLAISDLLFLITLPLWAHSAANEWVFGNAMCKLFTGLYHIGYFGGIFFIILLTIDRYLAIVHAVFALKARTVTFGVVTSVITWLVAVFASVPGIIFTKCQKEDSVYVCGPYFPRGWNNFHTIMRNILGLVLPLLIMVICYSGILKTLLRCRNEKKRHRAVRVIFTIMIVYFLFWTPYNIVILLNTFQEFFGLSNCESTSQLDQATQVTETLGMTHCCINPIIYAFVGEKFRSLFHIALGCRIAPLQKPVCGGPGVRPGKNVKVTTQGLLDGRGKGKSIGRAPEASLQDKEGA
T4 sequence (P51681 whole entry): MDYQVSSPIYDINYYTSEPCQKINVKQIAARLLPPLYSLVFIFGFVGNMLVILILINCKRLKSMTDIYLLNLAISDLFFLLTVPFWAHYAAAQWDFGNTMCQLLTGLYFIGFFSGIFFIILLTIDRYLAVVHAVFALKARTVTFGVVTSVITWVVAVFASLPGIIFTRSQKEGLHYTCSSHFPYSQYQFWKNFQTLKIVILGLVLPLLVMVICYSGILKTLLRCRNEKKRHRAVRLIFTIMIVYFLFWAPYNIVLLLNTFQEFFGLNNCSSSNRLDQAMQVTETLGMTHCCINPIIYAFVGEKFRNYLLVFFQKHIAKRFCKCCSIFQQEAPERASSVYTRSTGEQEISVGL

B1: human monoclonal antibody 5H7 (antibody, human IgG2, V domains shown)
VH: QVQVVQSGAEVKKPGASVKVSCKTSGYTFTGNYIHWVRQAPGQGLEWMGWINPNSGGTNFAQKFQGRVTMTRDTSITTAYMVLSRLRSDDTAVYYCARGGNNMIVVARGYYGMDVWGQGTTVTVSS
VL: DIQMTQSPSSLSASVGDRVTITCRASQSIGRYLNWYQQKPGKAPKLLIYGASSLQSGVPSRFSGSGSGTEFTLTISSLQPEDFATYYCQQSFRVPISFGQGTRLEIK
notes: The hybridoma antibody as tested is human IgG2, kappa; also called human mAb 5H7; antibody of hybridoma LS328-5H7-2-6 (ATCC PTA-5388)
Consider B1, for which the “IC50 of inhibition of chemotaxis of CXCR3 transfectants toward I-TAC” value with human CXCR3 [1] was determined as 1.2 µg/mL. Further, the “IC50 of inhibition of chemotaxis of CXCR3 transfectants toward IP-10” value with human CXCR3 [1] worked out at 0.7 µg/mL. For the same molecule, the “IC50 of inhibition of chemotaxis of CXCR3 transfectants toward MIG” value with human CXCR3 [1] is 2.9 µg/mL. Also, the binding result with human CCR3, with human CCR4, in the assay with human CCR5, with human CXCR1, with human CXCR2 and in the assay with human CXCR4 was “no binding” throughout. Besides, the binding result in the assay with human CCR1 and in the assay with human CCR2 was “no binding” in each case. The same molecule registered an EC50 with human CXCR3 [2] of 0.5 nM.

B2: human monoclonal antibody 7H5 (antibody, human IgG2, V domains shown)
VH: QVQVVQSGAEVKKPGASVKVSCKASGYTFTGYYIHWVRQAPGQGLEWMGWINPDSGGTNYAQKFQGRVTMTRDTSISTAYMVLNRLRSDDTAVYYCAKGGINMIVVARGYYGMDVWGQGTTVTVSS
VL: DIQMTQSPSSLSASVGDRVTITCRTSQSIGRYLNWYQQKPGKAPKLLIYGASSLQSGVPSRFSGSGSGTEFTFIISSLQPEDFATYYCQQSFRVPITFGQGTRLEIK
notes: The hybridoma antibody as tested is human IgG2, kappa; also called human mAb 7H5; antibody of hybridoma LS329-7H5-2-19-7 (ATCC PTA-5389)
Turning to B2, the binding result in the assay with human CCR3, with human CCR4, with human CCR5, with human CXCR1, with human CXCR2 and in the assay with human CXCR4 was “no binding” each time. Also, the binding result with human CCR1 and with human CCR2 was “no binding” each time. The same molecule had a concentration giving a half-maximal response (EC50) with human CXCR3 [2] of 1.2 nM.

The values are drawn from patent publication US20050112119A1 (Takeda / Millennium, published 2005).
